Measurements taken from patent publication US20240352134A1 (NANJING IMMUNOPHAGE BIOTECH, published 2024).
Changes are numbered by the printed parent chain.

Columns and labels:
[1] = target: T1, human CCR8 (human, UniProt P51685 1-355); test: FACS as in Example 2; antibody after Oxidation 24 h; ratio to T0
T1 construct: whole, on cells; also called hCCR8; C-C Motif Chemokine Receptor 8

[2] = target: T1, human CCR8; test: FACS as in Example 2; antibody after Freeze/thaw 5FT; ratio to T0
[3] = target: T1, human CCR8; test: cell-based or functional assay
[4] = target: T1, human CCR8; test: FACS as in Example 2; antibody after 40° C. 4 W; ratio to T0
[5] = target: T1, human CCR8; test: FACS as in Example 2; antibody after 40° C. 2 W; ratio to T0
[6] = target: T1, human CCR8; test: FACS as in Example 2; antibody after 40° C. 1 W; ratio to T0
[7] = target: T1, human CCR8; test: FACS as in Example 2; T0 (the reference itself)
[8] = target: T1, human CCR8; test: cell-based or functional assay; remark: listed apart in the source
[9] = target: T1, human CCR8; test: FACS on human CCR8-expressing 293F cells
[10] = target: T1, human CCR8; test: FACS on human CCR8-expressing 293F cells; remark: listed apart in the source
[11] = target: T1, human CCR8; test: binding affinity EC50, comparison of Table 12 (FACS on CCR8-expressing cells)

T1 sequence (P51685 whole entry): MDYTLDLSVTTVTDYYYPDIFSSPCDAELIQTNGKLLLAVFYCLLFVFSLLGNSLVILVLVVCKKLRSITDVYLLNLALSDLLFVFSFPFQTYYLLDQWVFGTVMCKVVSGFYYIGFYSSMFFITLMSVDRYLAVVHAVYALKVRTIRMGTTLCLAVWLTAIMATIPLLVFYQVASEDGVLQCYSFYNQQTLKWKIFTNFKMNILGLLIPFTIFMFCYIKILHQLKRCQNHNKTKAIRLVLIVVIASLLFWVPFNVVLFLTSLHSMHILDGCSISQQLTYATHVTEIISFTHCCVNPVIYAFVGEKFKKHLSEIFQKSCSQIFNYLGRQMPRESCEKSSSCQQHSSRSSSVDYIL

B1: 1G17hz3 (antibody, V domains shown)
VH: QVQLVQSGAEVKKPGASVKVSCKASGYTFADYEMHWVRQAPGQGLEWMGAIDPETGRTAYAQKFQGRVTMTADRSTSTAYMELSSLRSEDTAVYYCTRRAYWGGWGQGTLVTVSS
VL: DVVMTQSPLSLPVTLGQPASISCRSSQSLVHSSGNTYLHWYQQRPGQSPRLLIYKVSNRFSGVPDRFSGSGSGTDFTLKISRVEAEDVGVYFCSQSTHVPYTFGQGTKLEIK
notes: Humanized variant of 1G17
- Affinity EC50 (nM) Ratio [1]: 1.71
- Affinity EC50 (nM) Ratio [2]: 2.43
- Calcium mobilization IC50 (nM) Ratio; 40° C. 1 W [3]: 3.07
- Calcium mobilization IC50 (nM) Ratio; 40° C. 2 W [3]: 1.38
- Calcium mobilization IC50 (nM) Ratio; 40° C. 4 W [3]: 2.35
- Calcium mobilization IC50 (nM) Ratio; Freeze/thaw 5FT [3]: 0.32
- Calcium mobilization IC50 (nM) Ratio; Oxidation 24 h [3]: 1.14
- Calcium mobilization IC50 (nM) Ratio; T0 [3]: 1
- Affinity EC50 (nM) Ratio [4]: 1.1
- Affinity EC50 (nM) Ratio [5]: 1.31
- Affinity EC50 (nM) Ratio [6]: 0.91
- Affinity EC50 (nM) Ratio [7]: 1
- Calcium mobilization IC50 [8]: 25.3 nM
- EC50 [9]: 0.47 nM

B2: 1G17hz0 (antibody, V domains shown)
VH: QVQLQQSGAELVRPGASVTLSCKASGYTFADYEMHWVKQTPVLGLEWIGAIDPETGRTAYNQKFKFKATLTADRSSSTAYMELRSLTSEDSAVYYCTRRAYWGGWGQGTTLTVSS
VL: B1 VL with S7T, T14S, Q17D, P18Q, Q42L, R44K, R50K, V88L, Q105G
notes: same VH and VL as mouse 1G17
- EC50 [9]: 0.451 nM

B3: 1G17hz2 (antibody, V domains shown)
VH: B1 VH with M48I, A50I, A59S, V68A, M70L
VL: B1 VL with H39N, F60D
notes: Humanized variant of 1G17
- EC50 [9]: 333 nM

B4: 3F11hz1 (antibody, V domains shown)
VH: EVQLVESGGGLVQPGGSLKLSCAASGFSFNTYAMHWVRQASGKGLEWVGRIRSKSNYYATYYAASVKGRFTISRDDSKNTAYLQMNSLKTEDTAVYYCTRGRELGDYYAMDYWGQGTLVTVSS
VL: DIVMTQSPLSLPVTPGEPASISCRSSKSLLHSNGNTYLDWYLQKPGQSPQLLIYRMSNRASGVPDRFSGSGSGTDFTLKISRVEAEDVGVYYCMQHLEYPFTFGQGTKLEIK
notes: Humanized variant of 3F11
- binding result [10]: binds

B5: 3O20hz2 (antibody, V domains shown)
VH: EVQLVESGGGLVQPGGSLKLSCATSGFSFNAYAMNWVRQASGKGLEWVGRIRSKSNNYATYYAASVKGRFTISRDDSKTTLYLQMNSLKTEDTAVYYCVRGGYHGNSAYFDVWGQGTLVTVSS
VL: B4 VL with D39Y, Y41F, R59L, M94L
notes: Humanized variant of 3O20
- Affinity EC50 (nM) Ratio [1]: 2.13
- Affinity EC50 (nM) Ratio [2]: 1.22
- Calcium mobilization IC50 (nM) Ratio; 40° C. 1 W [3]: 3.02
- Calcium mobilization IC50 (nM) Ratio; 40° C. 2 W [3]: 0.98
- Calcium mobilization IC50 (nM) Ratio; 40° C. 4 W [3]: 1.86
- Calcium mobilization IC50 (nM) Ratio; Freeze/thaw 5FT [3]: 1.37
- Calcium mobilization IC50 (nM) Ratio; Oxidation 24 h [3]: 1.42
- Calcium mobilization IC50 (nM) Ratio; T0 [3]: 1
- Affinity EC50 (nM) Ratio [4]: 1.65
- Affinity EC50 (nM) Ratio [5]: 1.14
- Affinity EC50 (nM) Ratio [6]: 0.79
- Affinity EC50 (nM) Ratio [7]: 1
- Calcium mobilization IC50 [8]: 7.39 nM
- EC50 [9]: 0.135 nM

B6: 3F11hz5 (antibody, V domains shown)
VH: B4 VH with H35N, T99V
VL: B4 VL with D39E
notes: Humanized variant of 3F11
- binding result [10]: binds

B7: 3F11hz6 (antibody, V domains shown)
VH: B4 VH with H35N, T99V
VL: B4 VL with N33S, Y41F
notes: Humanized variant of 3F11
- binding result [10]: binds

B8: 3F11hz3 (antibody, V domains shown)
VH: B4 VH with S28T, N30S, H35N, A64D, G68D, T99V
VL: B4 VL with Y41F, R59L
notes: Humanized variant of 3F11
- binding result [10]: binds

B9: 3F11hz0 (antibody, V domains shown)
VH: EVQLVESGGGLVQPKGSLKLSCAASGFSFNTYAMNWVRQAPGKGLEWVARIRSKSNYYATYYADSVKDRFTISRDDSESMLYLQMNNLKTEDTAMYYCVRGRELGDYYAMDYWGQGTSVTVSS
VL: DIVMTQAAPSVPVTPGESVSISCRSSKSLLHSNGNTYLYWFLQRPGQSPQLLIYRMSNLASGVPNRFSGSGSGTAFTLRISRVEAEDVGVYYCMQHLEYPFTFGSGTKLEIK
notes: same VH and VL as mouse 3F11
- EC50 [9]: 0.309 nM

B10: 3O20hz0 (antibody, V domains shown)
VH: B5 VH with G15K, S41P, A64D, T80I, S87T, V95I, Q115T, L118S
VL: B9 VL with N65D, M94L
notes: same VH and VL as mouse 3O20
- EC50 [9]: 0.185 nM

B11: TPP-23411 (antibody, V domains shown)
VH: EVQLLESGGGLVQPGGSLRLSCAASGFTFSSYGMHWVRQAPGKGLEWVSAINWNGGSTGYADSVKGRFTISRDNSKNTLYLQMNSLRAEDTAVYYCARGHHSGYDGRFFDYWGQGTLVTVSS
VL: QSVLTQPPSVSGAPGQRVTISCTGSSSNIGAGYNVHWYQQLPGTAPKLLIYTNNRRPSGVPDRFSGSKSGTSASLAISGLRSEDEADYYCAAWDASLSGWVFGGGTKLTVLG
- EC50 [11]: 0.65 nM
